Laboratory results: the supplement of paper PMC9233669
Fewer inactive variants are shown than the library holds.

Key:
biotinyl-Ile-oxazolone = test: self-aminoacylation, catalytic enhancement (BIO) (fold over background); higher = more active; k-Seq, kA / k0A0; sequences stand for … in GGGAAUGGAUCCACAUCUACGAAUUC…UUCACUGCAGACUUGACGAAGCUG
In short: (§1)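 Mutagenized RNA pools with a 21-nt variable region (0.43 μM) reacted with each biotinyl-aminoacyl-oxazolone at 2–1250 μM. Reactions ran in 50 μL HEPES/NaCl/KCl/MgCl2/CaCl2 buffer with 5% acetonitrile, pH 6.9–7.0, for 90 minutes at room temperature. Streptavidin-captured RNA was quantified by triplicate qPCR and Illumina sequencing, and per-sequence fraction reacted was fit to a pseudo-first-order model with 1000 bootstraps. Catalytic enhancement is median kA divided by the uncatalyzed rate, the low-activity peak of a bimodal Gaussian fit.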

biotinyl-Met-oxazolone = test: self-aminoacylation, catalytic enhancement (BMO) (fold over background); higher = more active; k-Seq, kA / k0A0; sequences stand for … in GGGAAUGGAUCCACAUCUACGAAUUC…UUCACUGCAGACUUGACGAAGCUG
In short: as §1

biotinyl-Phe-oxazolone = test: self-aminoacylation, catalytic enhancement (BFO) (fold over background); higher = more active; k-Seq, kA / k0A0; sequences stand for … in GGGAAUGGAUCCACAUCUACGAAUUC…UUCACUGCAGACUUGACGAAGCUG
In short: as §1

biotinyl-Val-oxazolone = test: self-aminoacylation, catalytic enhancement (BVO) (fold over background); higher = more active; k-Seq, kA / k0A0; sequences stand for … in GGGAAUGGAUCCACAUCUACGAAUUC…UUCACUGCAGACUUGACGAAGCUG
In short: as §1

biotinyl-Trp-oxazolone = test: self-aminoacylation, catalytic enhancement (BWO) (fold over background); higher = more active; k-Seq, kA / k0A0; sequences stand for … in GGGAAUGGAUCCACAUCUACGAAUUC…UUCACUGCAGACUUGACGAAGCUG
In short: as §1

biotinyl-Leu-oxazolone = test: self-aminoacylation, catalytic enhancement (BLO) (fold over background); higher = more active; k-Seq, kA / k0A0; sequences stand for … in GGGAAUGGAUCCACAUCUACGAAUUC…UUCACUGCAGACUUGACGAAGCUG
In short: as §1

Row | Sequence | self-aminoacylation (biotinyl-Ile-oxazolone) | self-aminoacylation (biotinyl-Met-oxazolone) | self-aminoacylation (biotinyl-Phe-oxazolone) | self-aminoacylation (biotinyl-Val-oxazolone) | self-aminoacylation (biotinyl-Trp-oxazolone) | self-aminoacylation (biotinyl-Leu-oxazolone)
1 | CUACUUCAAACCAUCGUUCUG [Fam1A.1 aminoacylation ribozyme variant] | 0.689 | 0.525 | 0.66 | 0.59 | 0.478 | 0.553
2 | CUACUUCAAACCGUCGGUCUG [Fam1A.1 aminoacylation ribozyme variant] | 0.831 | 0.847 | 0.289 | 0.917 | 0.872 | 0.71
3 | CUACUUCAAACGAUCAGUCUG [Fam1A.1 aminoacylation ribozyme variant] | 0.633 | 0.593 | 1.22 | 0.751 | 0.734 | 0.549
4 | CUACUUCAAACGCUCGGUCUG [Fam1A.1 aminoacylation ribozyme variant] | 0.741 | 0.592 | 0.793 | 0.828 | 0.637 | 1.09
5 | CUACUUCAAACUACCGGUCUG [Fam1A.1 aminoacylation ribozyme variant] | 1.1 | 0.809 | 0.75 | 0.832 | 0.846 | 0.868
6 | CUACUUCAAACUAUCGGUAUG [Fam1A.1 aminoacylation ribozyme variant] | 0.715 | 0.557 | 0.842 | 0.813 | 0.665 | 0.601
7 | CUACUUCAAACUAUCGGUCUA [Fam1A.1 aminoacylation ribozyme variant] | 0.944 | 0.729 | 1.08 | 0.912 | 0.62 | 0.696
8 | CUACUUCAAACUAUCGGUCUU [Fam1A.1 aminoacylation ribozyme variant] | 1.03 | 0.833 | 0.957 | 0.968 | 0.796 | 0.822
9 | CUACUUCAAACUAUUGGUCUG [Fam1A.1 aminoacylation ribozyme variant] | 0.995 | 0.897 | 0.825 | 0.869 | 0.501 | 0.92
10 | CUACUUCAAAGAAUCGAUCUG [Fam1A.1 aminoacylation ribozyme variant] | 0.679 | 0.454 | 0.544 | 0.595 | 0.506 | 0.615
11 | CUACUUCAAAGAAUCGGUCUU [Fam1A.1 aminoacylation ribozyme variant] | 1.29 | 0.926 | 2.46 | 1.06 | 2.13 | 1.14
12 | CUACUUCAAAGAAUUGGUCUG [Fam1A.1 aminoacylation ribozyme variant] | 1.18 | 0.954 | 0.605 | 0.912 | 0.806 | 1.08
13 | CUACUUCAAAGAUUCGGUCUG [Fam1A.1 aminoacylation ribozyme variant] | 1.01 | 1.09 | 0.503 | 1.08 | 0.679 | 0.97
14 | CUACUUCAAAGCAUCGGUCUG [Fam1A.1 aminoacylation ribozyme variant] | 0.857 | 0.802 | 0.786 | 0.939 | 0.794 | 0.898
15 | CUACUUCAAAGGAUCGGUCUG [Fam1A.1 aminoacylation ribozyme variant] | 0.925 | 1.04 | 0.753 | 0.902 | 0.738 | 0.912
16 | CUACUUCAACCAAUCAGUCUG [Fam1A.1 aminoacylation ribozyme variant] | 0.747 | 0.541 | 13.9 | 0.701 | 5.54 | 0.794
17 | CUACUUCAACCAAUCGGACUG [Fam1A.1 aminoacylation ribozyme variant] | 0.79 | 0.814 | 10.7 | 0.946 | 4.9 | 0.851
18 | CUACUUCAACGAAUCGGUCUG [Fam1A.1 aminoacylation ribozyme variant] | 0.847 | 0.753 | 4.58 | 0.833 | 3.92 | 1.02
19 | CUACUUCAAGCAAUCGGGCUG [Fam1A.1 aminoacylation ribozyme variant] | 2.01 | 1.8 | 3.43 | 1.61 | 3.87 | 2.58
20 | CUACUUCAAGCAAUCGGUAUG [Fam1A.1 aminoacylation ribozyme variant] | 0.94 | 1.07 | 8.16 | 0.963 | 4.52 | 1.02
21 | CUACUUCAAGCAAUCGGUGUG [Fam1A.1 aminoacylation ribozyme variant] | 1.26 | 1.59 | 3.56 | 1.24 | 3.13 | 1.83
22 | CUACUUCAAGCCAUCGGUCUG [Fam1A.1 aminoacylation ribozyme variant] | 0.89 | 0.729 | 0.772 | 1.04 | 0.696 | 1.15
23 | CUACUUCAAUCAAACGGUCUG [Fam1A.1 aminoacylation ribozyme variant] | 0.637 | 0.639 | 0.638 | 0.794 | 0.481 | 0.671
24 | CUACUUCAAUCAAUCGGUCGG [Fam1A.1 aminoacylation ribozyme variant] | 1.15 | 1.39 | 15.8 | 1.04 | 12.2 | 1.47
25 | CUACUUCAAUCAAUCGGUCUA [Fam1A.1 aminoacylation ribozyme variant] | 0.972 | 0.871 | 13.7 | 0.914 | 7.18 | 1.02
26 | CUACUUCAAUCAAUCGGUCUG [Fam1A.1 aminoacylation ribozyme variant] | 1.01 | 1.04 | 31.7 | 1.03 | 17.9 | 1.44
